Eight molecules from article PMC4019985, “Mitochondrial thiol oxidase Erv1: both shuttle cysteine residues are required for its function with distinct roles” (Biochemical Journal, 2014) can be followed below.

The labels stand for the following.
B1: Erv1^CXXS (Erv1C33S) (enzyme, S. cerevisiae, UniProt P27882 1-189, looked up)
chain: MKAIDKMTDNPPQEGLSGRKIIYDEDGKPCRSSNTLLDFQYVTGKISNGLKNLSSNGKLAGTGALTGEASELMPGSRTYRKVDPPDVEQLGRSSWTLLHSVAASYPAQPTDQQKGEMKQFLNIFSHIYPCNWCAKDFEKYIRENAPQVESREELGRWMCEAHNKVNKKLRKPKFDCNFWEKRWKDGWDE
notes: Erv1, S. cerevisiae, full length, second shuttle cysteine changed to serine
B2: Erv1 redox active-site disulfide double cysteine mutant (C130/C133S) (enzyme, S. cerevisiae, UniProt P27882 1-189, looked up)
chain: B1 chain with S33C, C130S, C133S
notes: Erv1, S. cerevisiae, full length, both active-site cysteines changed to serine; also called Erv1^CCSS
B3: Erv1 (essential for respiration and viability 1), wild-type (enzyme, S. cerevisiae, UniProt P27882 1-189, looked up)
chain: B1 chain with S33C
notes: Erv1, FAD-dependent thiol oxidase of the mitochondrial intermembrane space, S. cerevisiae, full length; Construct in pET24a(+) via Nde1/Xho1; also called WT Erv1; WT
B4: Mia40^SPC, core domain Mia40c (amino acids 284-403) with the first cysteine of the CPC motif changed to serine (domain or fragment, S. cerevisiae, UniProt P36046 284-403, looked up)
chain: AYNPDTGEINWDSPCLGGMAHGPCGEEFKSAFSCFVYSEAEPKGIDCVEKFQHMQDCFRKYPEHYAEQLKETSDDEEPQDKVKVNTIESAPNVSSAKENAAKKAEQSDVKKEPLNEESKP
notes: Mia40, S. cerevisiae, core domain Mia40c, residues 284-403 (~15 kDa); first cysteine of the CPC motif (Cys296) changed to serine; source: purified (glutathione-Sepharose 4B, thrombin cleavage, Superdex 75)
B5: Mia40^CPS, core domain Mia40c (amino acids 284-403) with the second cysteine of the CPC motif changed to serine (domain or fragment, S. cerevisiae, UniProt P36046 284-403, looked up)
chain: B4 chain with S13C, C15S
notes: Mia40, S. cerevisiae, core domain Mia40c, residues 284-403 (~15 kDa); second cysteine of the CPC motif (Cys298) changed to serine; source: purified (glutathione-Sepharose 4B, thrombin cleavage, Superdex 75)
B6: Erv1^SXXC (Erv1C30S) (enzyme, S. cerevisiae, UniProt P27882 1-189, looked up)
chain: B1 chain with C30S, S33C
notes: Erv1, S. cerevisiae, full length, first shuttle cysteine changed to serine; Found as a tetramer (peak 1, yellow) and a dimer (peak 2, black, charge-transfer complex)

Where a chain is given by its changes, count along the chain named. Names and notes keep the numbering of the source. Values joined by “and” are separate entries in the source; they are usually repeats but may differ in a detail not shown here. Identical values can stand only once.

Data set [1] has as its target Cys30 (UniProt position 30, EDGKPCRSSNT). Kind of data set: chemical modification (monobromobimane alkylation) with fluorescence detection. The settings on record: 25°C; I = 0.15 M (constant ionic strength buffers, 120 mM NaCl); 15 mM acetic acid, 15 mM Mes and 30 mM Tris (pH 3.5–9.0), or 30 mM Aces, 15.6 mM Tris and 15.6 mM ethanolamine (pH 5.7–10). Both contained 120 mM NaCl and 0.1 mM DTPA.; Folded, FAD-bound. The single shuttle cysteine is reduced (free thiol, confirmed by AMS modification), and the active-site cysteines are replaced by serine.

Data set [2] addresses Cys33 (UniProt position 33, KPSRSCNTLLD). Described as above. The settings on record: 25°C; I = 0.15 M (constant ionic strength buffers, 120 mM NaCl); 15 mM acetic acid, 15 mM Mes and 30 mM Tris (pH 3.5–9.0), or 30 mM Aces, 15.6 mM Tris and 15.6 mM ethanolamine (pH 5.7–10). Both contained 120 mM NaCl and 0.1 mM DTPA.; Folded, FAD-bound. The single shuttle cysteine is reduced (free thiol, confirmed by AMS modification), and the active-site cysteines are replaced by serine.

Data set [3] deals with the molecule itself. Kind of data set: SEC; Superdex 75 in buffer A (50 mM Tris/HCl pH 7.4, 150 mM NaCl); elution position compared with the Erv1 tetramer.
Data set [4] concerns the molecule itself. Nature of the data set: non-reducing SDS/PAGE (intermolecular disulfide-bonded dimer); gel-filtration fractions of the purified proteins on Tris/Tricine SDS/PAGE (16% gel) under reducing and non-reducing conditions.
Data set [5] concerns the target B6. Nature of the data set: mixed disulfide trapping, non-reducing SDS/PAGE and Western blot; single cysteine mutants pre-treated with 2 mM TCEP, exchanged to buffer A, incubated at 5 uM each for 20 min at room temperature (stopped with 2.5 mM AMS, or 1 mM DTT as reducing control), or 50 uM Mia40 and 5 uM Erv1 over 10 min (stopped with 20 mM IAM); detected with an antibody against Erv1. The settings on record: both partners purified.

In data set [6] the target is B1. Described as above. The settings on record: both partners purified.
Data set [7] concerns the molecule itself. Kind of data set: SEC-MALS; Superdex 200 10/30 in buffer A (150 mM NaCl, 50 mM Tris/HCl pH 7.4), in-line DAWN EOS photometer and Optilab rEX refractor; the two gel-filtration peaks of the protein.

For “Mitochondrial FAD-linked sulfhydryl (thiol) oxidase Erv1, triple mutant Erv1^CSSS (C33S/C130S/C133S) (Saccharomyces cerevisiae; C33S;C130S;C133S)”, the pKa in data set [1] was 8.39±0.12.

With “Mitochondrial FAD-linked sulfhydryl (thiol) oxidase Erv1, triple mutant Erv1^SCSS (C30S/C130S/C133S) (Saccharomyces cerevisiae; C30S;C130S;C133S)”, in data set [2], the pKa was 8.41±0.06.

In the case of B1, the “stoichiometry N” value in data set [3] amounted to 4.

For B2, in data set [4], the binding result is on record as “binds”.

As to B3, in data set [4], the binding result was “binds”.

As to B4, the binding result in data set [5] and in data set [6] was “binds” in each case.

B5: the binding result in data set [5] and in data set [6] was “binds” throughout.

Take B6: in data set [7], the “stoichiometry N” value was 4 and 2.
